These results are taken from paper PMC8937303 (Molecular Cell, 2022).

The target of test [1] is T1, GST-SHP2 (UniProt Q06124 1-593).
T1 sequence (looked up): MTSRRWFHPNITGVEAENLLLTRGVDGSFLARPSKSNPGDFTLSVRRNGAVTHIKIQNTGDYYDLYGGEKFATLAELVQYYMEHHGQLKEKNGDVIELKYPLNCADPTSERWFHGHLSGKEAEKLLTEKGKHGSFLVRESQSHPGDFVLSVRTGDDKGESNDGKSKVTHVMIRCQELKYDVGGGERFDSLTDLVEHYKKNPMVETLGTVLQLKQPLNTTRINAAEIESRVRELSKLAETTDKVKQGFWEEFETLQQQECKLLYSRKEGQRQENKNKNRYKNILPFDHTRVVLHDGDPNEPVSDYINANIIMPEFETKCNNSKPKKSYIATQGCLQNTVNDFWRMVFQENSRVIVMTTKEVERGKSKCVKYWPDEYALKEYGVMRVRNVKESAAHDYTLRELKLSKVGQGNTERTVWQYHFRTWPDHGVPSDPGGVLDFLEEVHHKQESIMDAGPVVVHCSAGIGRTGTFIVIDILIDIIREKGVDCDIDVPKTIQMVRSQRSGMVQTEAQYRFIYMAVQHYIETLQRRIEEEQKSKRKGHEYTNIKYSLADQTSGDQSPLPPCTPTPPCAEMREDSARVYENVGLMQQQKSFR
Description: pull-down.

The target in test [2] is T2, SHP2_(2SH2) (UniProt Q06124 1-221).
T2 sequence (looked up): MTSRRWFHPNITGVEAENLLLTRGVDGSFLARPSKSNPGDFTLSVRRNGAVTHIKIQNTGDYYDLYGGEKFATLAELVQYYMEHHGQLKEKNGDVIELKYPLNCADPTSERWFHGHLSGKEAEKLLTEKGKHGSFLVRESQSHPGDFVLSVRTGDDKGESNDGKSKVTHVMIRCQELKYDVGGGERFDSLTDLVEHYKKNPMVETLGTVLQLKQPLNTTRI
Description: ITC. On the technique in general: In ITC the heat of successive injections is recorded.

Test [3] addresses T2, SHP2_(2SH2). The test is described as follows: pull-down.

B1: pFGFR2_(Cyto) (domain or fragment, UniProt P21802 400-821, looked up)
chain: MKNTTKKPDFSSQPAVHKLTKRIPLRRQVTVSAESSSSMNSNTPLVRITTRLSSTADTPMLAGVSEYELPEDPKWEFPRDKLTLGKPLGEGCFGQVVMAEAVGIDKDKPKEAVTVAVKMLKDDATEKDLSDLVSEMEMMKMIGKHKNIINLLGACTQDGPLYVIVEYASKGNLREYLRARRPPGMEYSYDINRVPEEQMTFKDLVSCTYQLARGMEYLASQKCIHRDLAARNVLVTENNVMKIADFGLARDINNIDYYKKTTNGRLPVKWMAPEALFDRVYTHQSDVWSFGVLMWEIFTLGGSPYPGIPVEELFKLLKEGHRMDKPANCTNELYMMMRDCWHAVPSQRPTFKQLVEDLDRILTLTTNEEYLDLSQPLEQYSPSYPDTRSSCSSGDDSVFSPDPMPYEPCLPQYPHINGSVKT
modifications: tyrosine phosphorylated in vitro (sites not printed for the preparation)
Turning to B1, the binding result in test [1] is “binds”.

B2: pFGFR2C58 (domain or fragment, UniProt P21802 764-821, looked up)
chain: TTNEEYLDLSQPLEQYSPSYPDTRSSCSSGDDSVFSPDPMPYEPCLPQYPHINGSVKT
modifications: tyrosine phosphorylated in vitro (sites not printed for the preparation)
Regarding B2, in test [2], the Kd is roughly 8 µM and the “stoichiometry N” value amounted to 1.

B3: GST-pC58 (domain or fragment, UniProt P21802 763-821, looked up)
chain: LTTNEEYLDLSQPLEQYSPSYPDTRSSCSSGDDSVFSPDPMPYEPCLPQYPHINGSVKT
modifications: tyrosine phosphorylated in vitro
Regarding B3, in test [3], the binding result is “binds”.

What is called Kd is the equilibrium constant for the complex coming apart. Low values mean tighter binding, high ones weaker binding. The stoichiometry N is a count of units in the complex or per binding partner.
